# Experimental data: patent US20240270821A1, “GIP/GLP1/GCG TRI-RECEPTOR AGONISTS AND USES THEREOF” (priority 2023, published 2024)
# Starred links: 1 amine or outer side, 2 acyl side, 3 side chain; linkers in the order of their positions; H or OH if unused. Non-standard residues stand in square brackets, D forms with d. Groups on a side chain read outwards from the residue. No end group written: not given here. *: point of attachment. C20 diacid = O=C(O)CCCCCCCCCCCCCCCCCCC(=O)*; Phe(4-CN) = N#Cc1ccc(C[C@H](N)C(=O)O)cc1; αMePhe(2-F) = C[C@](N)(Cc1ccccc1F)C(=O)O; γGlu = O=C(O)[C@H](CCC(=O)[*:2])N[*:1]; αMeL = CC(C)C[C@](C)(N)C(=O)O; AEEA = NCCOCCOCC(=O)O; Aib = CC(C)(N)C(=O)O
# T1: human GIP receptor (human) (UniProt P48546)
# T1 sequence (looked up): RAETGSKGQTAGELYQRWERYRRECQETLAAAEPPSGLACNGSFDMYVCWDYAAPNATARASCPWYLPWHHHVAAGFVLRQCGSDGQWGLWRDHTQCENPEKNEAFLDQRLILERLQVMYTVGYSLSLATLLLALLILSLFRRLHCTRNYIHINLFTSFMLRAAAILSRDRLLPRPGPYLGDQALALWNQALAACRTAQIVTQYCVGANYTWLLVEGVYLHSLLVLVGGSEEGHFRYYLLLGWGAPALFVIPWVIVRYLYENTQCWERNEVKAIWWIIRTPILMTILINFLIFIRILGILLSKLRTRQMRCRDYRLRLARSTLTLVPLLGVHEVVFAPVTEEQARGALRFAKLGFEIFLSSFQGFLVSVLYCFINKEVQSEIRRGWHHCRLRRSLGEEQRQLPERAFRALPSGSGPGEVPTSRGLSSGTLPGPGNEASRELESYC
# B1: Example 347 (peptide)
# chain: YXQGTXTSDXSILLDKQAQKAFIEYLLEGGPSSGEPPPSEG
# modifications: not fully specified; synthetic construct; SITE 2: note = 2-Aminoisobutyric Acid; SITE 6: note = alpha-methyl-2-fluoro-L-phenylalanine; SITE 10: note = 3-(4-Pyridyl)-L-alanine; SITE 20: note = Lysine is chemically modified through conjugation of the epsilon-amino group of the Lysine side chain with (2-[2-(2-Amino-ethoxy))
# B2: Example 343 (peptide)
# chain: YXQGTFTSDYSKXLDKKAQXAFVQWLLEGGPSSGEPPPSEG
# modifications: not fully specified; synthetic construct; SITE 2: note = 2-Aminoisobutyric Acid; SITE 13: note = alpha-methyl-leucine; SITE 17: note = Lysine is chemically modified through conjugation of the epsilon-amino group of the Lysine side chain with (2-[2-(2-Amino-ethoxy)-ethoxy]-acetyl)-(gamma-Glu)-CO-(CH2) 18-CO2H; SITE 20: n
# Molecular target: T1, human GIP receptor (human)
# Experiment: cell-based or functional assay
Binder,Relative cAMP EC50,"cAMP Rel EC50, nM (1% HSA)",cAMP Rel EC50 (1% HSA)
Y[Aib]QGT[αMePhe(2-F)]TSD[Phe(4-CN)]SILLDKQAQKAFIEYLLEGGPSSGEPPPSEG-NH2 (not fully specified (residue 20)) [Example 352],0.245 nM,34.1 nM,–
B1,0.0634 nM,17.3 nM,–
Y[Aib]QGTFTSDYSK[αMeL]LDKKAQQAFVQWLIE[dA]GPSSGEPPPSEG-NH2 (not fully specified (residue 17)) [Example 342],0.347 nM,–,71.3 nM
Y[Aib]QGT[αMePhe(2-F)]TSDYSILLDKQAAKEFIEYLIEGGPSSGEPPPSEG-NH2 (not fully specified (residue 20)) [Example 348],0.127 nM,36.4 nM,–
Y[Aib]QGT[αMePhe(2-F)]TSDYSKILDKIAQKAFIQYLIEGGPSSGEPPPSEG-NH2 (not fully specified (residue 20)) [Example 354],0.134 nM,23.8 nM,–
B2,0.184 nM,–,16.7 nM
Y[Aib]QGT[αMePhe(2-F)]TSDYSILLDKQAQKAFIEYLLEGGPSSGEPPPSEG-NH2 (not fully specified (residue 20)) [Example 345],0.0377 nM,–,15.3 nM
Y[Aib]QGT[αMePhe(2-F)]TSDYSILLDAQAAKEFIEYLIEGGPSSGEPPPSEG-NH2 (not fully specified (residue 20)) [Example 351],0.243 nM,57.5 nM,–
Y[Aib]QGTFTSDYSK[αMeL]LDKKAQQAFIEYLLAGGPSSGEPPPSGE-NH2 (not fully specified (residue 17)) [Example 344],0.406 nM,–,70.7 nM
Y[Aib]QGT[αMePhe(2-F)]TSD[Phe(4-CN)]SKLLDKIAQK([AEEA-γGlu-C20 diacid])AFIEYLIEGGPSSGAPPPSGS-NH2 [Example 363],0.375 nM,91.8 nM,–
Y[Aib]QGT[αMePhe(2-F)]TSDYSILLDKQAAKEFIEYLIEGGPSSGAPPPSEG-NH2 (not fully specified (residue 20)) [Example 340],0.189 nM,–,60.4 nM

# Molecular target: hGLP-1R (Homo sapiens, UniProt P43220)
# Experiment: cell-based or functional assay
# Chain of hGLP-1R (P43220 24-463): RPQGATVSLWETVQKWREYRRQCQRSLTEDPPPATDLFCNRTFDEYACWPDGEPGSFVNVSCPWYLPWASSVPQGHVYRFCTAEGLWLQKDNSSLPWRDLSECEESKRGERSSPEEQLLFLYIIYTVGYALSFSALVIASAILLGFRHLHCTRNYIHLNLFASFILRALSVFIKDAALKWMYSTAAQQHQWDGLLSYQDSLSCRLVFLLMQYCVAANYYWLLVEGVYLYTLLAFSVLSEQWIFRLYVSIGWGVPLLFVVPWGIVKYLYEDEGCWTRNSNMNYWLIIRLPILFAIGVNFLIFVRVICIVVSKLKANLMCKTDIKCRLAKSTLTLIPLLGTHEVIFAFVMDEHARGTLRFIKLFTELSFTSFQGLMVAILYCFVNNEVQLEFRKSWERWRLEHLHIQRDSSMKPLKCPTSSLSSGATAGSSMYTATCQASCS
Binder,Relative cAMP EC50,"cAMP Rel EC50, nM (1% HSA)",cAMP Rel EC50 (1% HSA)
Y[Aib]QGT[αMePhe(2-F)]TSD[Phe(4-CN)]SILLDKQAQKAFIEYLLEGGPSSGEPPPSEG-NH2 (not fully specified (residue 20)) [Example 352],0.967 nM,407 nM,–
B1,0.798 nM,254 nM,–
Y[Aib]QGTFTSDYSK[αMeL]LDKKAQQAFVQWLIE[dA]GPSSGEPPPSEG-NH2 (not fully specified (residue 17)) [Example 342],0.419 nM,–,62 nM
Y[Aib]QGT[αMePhe(2-F)]TSDYSILLDKQAAKEFIEYLIEGGPSSGEPPPSEG-NH2 (not fully specified (residue 20)) [Example 348],0.346 nM,136 nM,–
Y[Aib]QGT[αMePhe(2-F)]TSDYSKILDKIAQKAFIQYLIEGGPSSGEPPPSEG-NH2 (not fully specified (residue 20)) [Example 354],1.21 nM,175 nM,–
B2,1.31 nM,–,178 nM
Y[Aib]QGT[αMePhe(2-F)]TSDYSILLDKQAQKAFIEYLLEGGPSSGEPPPSEG-NH2 (not fully specified (residue 20)) [Example 345],0.658 nM,–,256 nM
Y[Aib]QGT[αMePhe(2-F)]TSDYSILLDAQAAKEFIEYLIEGGPSSGEPPPSEG-NH2 (not fully specified (residue 20)) [Example 351],0.679 nM,272 nM,–
Y[Aib]QGTFTSDYSK[αMeL]LDKKAQQAFIEYLLAGGPSSGEPPPSGE-NH2 (not fully specified (residue 17)) [Example 344],2.56 nM,–,523 nM
Y[Aib]QGT[αMePhe(2-F)]TSD[Phe(4-CN)]SKLLDKIAQK([AEEA-γGlu-C20 diacid])AFIEYLIEGGPSSGAPPPSGS-NH2 [Example 363],1.47 nM,217 nM,–
Y[Aib]QGT[αMePhe(2-F)]TSDYSILLDKQAAKEFIEYLIEGGPSSGAPPPSEG-NH2 (not fully specified (residue 20)) [Example 340],0.648 nM,–,246 nM

# Molecular target: human glucagon receptor (human) (UniProt P47871)
# Experiment: cell-based or functional assay
# Chain of human glucagon receptor (human) (P47871 26-477): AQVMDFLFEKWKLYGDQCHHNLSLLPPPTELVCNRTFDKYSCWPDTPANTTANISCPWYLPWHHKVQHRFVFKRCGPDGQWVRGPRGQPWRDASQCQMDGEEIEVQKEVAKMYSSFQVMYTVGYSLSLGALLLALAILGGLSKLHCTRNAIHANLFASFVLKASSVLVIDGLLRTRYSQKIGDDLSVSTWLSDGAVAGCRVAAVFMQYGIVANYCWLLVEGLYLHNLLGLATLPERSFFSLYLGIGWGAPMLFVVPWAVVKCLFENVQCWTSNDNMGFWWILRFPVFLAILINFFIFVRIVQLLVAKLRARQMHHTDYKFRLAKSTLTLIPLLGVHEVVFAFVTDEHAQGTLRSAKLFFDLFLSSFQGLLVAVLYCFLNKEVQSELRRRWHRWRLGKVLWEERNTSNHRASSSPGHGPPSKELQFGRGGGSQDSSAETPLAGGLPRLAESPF
Binder,Relative cAMP EC50,"cAMP Rel EC50, nM (1% HSA)",cAMP Rel EC50 (1% HSA)
Y[Aib]QGT[αMePhe(2-F)]TSD[Phe(4-CN)]SILLDKQAQKAFIEYLLEGGPSSGEPPPSEG-NH2 (not fully specified (residue 20)) [Example 352],16.4 nM,4020 nM,–
B1,8.88 nM,3650 nM,–
Y[Aib]QGTFTSDYSK[αMeL]LDKKAQQAFVQWLIE[dA]GPSSGEPPPSEG-NH2 (not fully specified (residue 17)) [Example 342],10.2 nM,–,2130 nM
Y[Aib]QGT[αMePhe(2-F)]TSDYSILLDKQAAKEFIEYLIEGGPSSGEPPPSEG-NH2 (not fully specified (residue 20)) [Example 348],3.9 nM,1250 nM,–
Y[Aib]QGT[αMePhe(2-F)]TSDYSKILDKIAQKAFIQYLIEGGPSSGEPPPSEG-NH2 (not fully specified (residue 20)) [Example 354],7.91 nM,1440 nM,–
B2,6.83 nM,–,475 nM
Y[Aib]QGT[αMePhe(2-F)]TSDYSILLDKQAQKAFIEYLLEGGPSSGEPPPSEG-NH2 (not fully specified (residue 20)) [Example 345],11.3 nM,–,3300 nM
Y[Aib]QGT[αMePhe(2-F)]TSDYSILLDAQAAKEFIEYLIEGGPSSGEPPPSEG-NH2 (not fully specified (residue 20)) [Example 351],12.1 nM,2470 nM,–
Y[Aib]QGTFTSDYSK[αMeL]LDKKAQQAFIEYLLAGGPSSGEPPPSGE-NH2 (not fully specified (residue 17)) [Example 344],9.05 nM,–,1440 nM
Y[Aib]QGT[αMePhe(2-F)]TSD[Phe(4-CN)]SKLLDKIAQK([AEEA-γGlu-C20 diacid])AFIEYLIEGGPSSGAPPPSGS-NH2 [Example 363],13.6 nM,4080 nM,–
Y[Aib]QGT[αMePhe(2-F)]TSDYSILLDKQAAKEFIEYLIEGGPSSGAPPPSEG-NH2 (not fully specified (residue 20)) [Example 340],2.02 nM,–,647 nM
